No end group written: not given here.
T1: "wild-type" (WT) peptide having the amino acid sequence CGAGGVGKSALTI (SEQ ID NO:160)
T1 peptide: CGAGGVGKSALTI

T2: isolated G13D Ab1 peptide of SEQ ID NO:5 (human)
T2 peptide: CGAGDVGKSALTI-NH2


Assays:
[1] = molecular target: T1, "wild-type" (WT) peptide having the …; test: further ELISA on WT peptide; weaker than on the mutant peptide
[2] = molecular target: T2, isolated G13D Ab1 peptide of SEQ ID NO:5; test: ELISA, hybridoma supernatant on dilutions of the peptide, absorbance at 405 nm
[3] = molecular target: T2, isolated G13D Ab1 peptide of SEQ ID NO:5; test: further ELISA, mutant peptide compared with WT peptide

binding result [1] | binding result [2] | binding result [3] | Binder
binds | binds | – | 4B8-1 (antibody, V domains shown, Mouse monoclonal IgG from a hybridoma, tested as hybridoma supernatant) VH: EVQLQQSGPERVKPGASVKMSCKASGYTFTDYSMHWVKQSHGKSLEWIGYINPNNGGASYNQKFKGKATLTVNKSSSTAYMELRSLTSEDSAVYYCARGDYYGGGYWGQGTTLTVSS VL: ENVLTQSPAIMSASPGEKVTMTCSASSSVSYMHWYQQKSSTSPKLWIYDTSKVASGVPGRFSGSGSGNSYSLTINSMEAEDVATYYCFQGSGYPLTFGAGTKLELK
binds | – | binds | 11D6-1 (antibody, V domains shown, Mouse monoclonal IgG from a hybridoma, tested as hybridoma supernatant) VH: EVQLQQSGPELVKPGASVKMSCKTSGYTFTDYTMHWVKQSHGKSLEWIGYINPNNGGTYYNQRFKGKATLTVSRSSSTAYIELRSLTSDDSAVYYCARGDYYGGGYWGQGTTLRVSS VL: ENVLTQSPAIMSASPGEKVTMTCSAGSSVSYMHWYQQKSSTSPKLWIYDTSKLASGVPGRFSGSGSGNSYSLTISSMEAEDVATYYCFQGSGYPLTFGDGTKLELK
binds | binds | – | 7D11-1 (antibody, V domains shown, Mouse monoclonal IgG from a hybridoma, tested as hybridoma supernatant) VH: QVQLQQPGAEFVKPGASVKLSCKASGYTFTRYWMHWVKQRPGRGLEWIGRIDPNSGGTTFNEKFKSKATLTVDKPSSTAYMQLSSLTSEDSAVYYCAREVGGYWGQGTTLTVSS VL: ENVLTQSPAIMSASPGEKVTMTCSAGSSVDYMHWYQQKSSTSPKLWIYDTSKLASGVPGRFSGSGSGNSYSLTISSMEAEDVATYYCFQGSGYPLTFGAGTKLELR
– | binds | – | 7G2-1 (antibody, V domains shown, Mouse monoclonal IgG from a hybridoma, tested as hybridoma supernatant) VH: QVTLKESGPGILQPSQTLSLTCSFSGFSLSTFGMGVGWIRQPSGKGLEWLAHIWWDDDKNYNPALKSRLTISKDTSKNQVFFKIANVDTADTATYYCVQLSTMGDGGYWGQGTLVTVSA VL: NIVMTQSPKSMSMSVGERVTLSCKASENVGTYVSWYQQKPGQSPKLLIYGASNRYTGVPDRFTGSGSGTDFILTISSVQAEDLADYHCGQSYNYPFTFGSGTKLEIK

From patent US20230109318A1 (OBLIQUE THERAPEUTICS, published 2023)
